Read-outs that look alike come from different tables or passages of the source.

In assay [1] the target is prothymosin α (unlabeled) (human) (UniProt P06454). The assay is described as follows: ITC.
For assay [2], the target named is ProTα E56C/D110C labeled with Alexa Fluors 488 and 594 (human) (UniProt P06454). The assay is described as follows: FRET or BRET.
The target of assay [3] is prothymosin α (unlabeled) (human) (UniProt P06454). Nature of the assay: ITC. This is another data set of the same source.
The target of assay [4] is ProTα E56C/D110C labeled with Alexa Fluors 488 and 594 (human) (UniProt P06454). The assay is described as follows: FRET or BRET. The source holds these as a separate data set.
Assay [5] concerns the target ProTα-H1 dimer (PH) of labeled ProTα E56C/D110C and unlabeled H1 (human) (UniProt P06454). The assay is described as follows: FRET or BRET.
The target is the same in assay [6]. Nature of the assay: FRET or BRET. This is another data set of the same source.
The target of assay [7] is ProTα-H1 dimer (PH) of unlabeled ProTα and unlabeled H1 (human) (UniProt P06454). Nature of the assay: FRET or BRET.

Consider “linker histone H1 (from UniProt P07305 1-194) (natural protein)”, for which the dH in assay [1] amounted to 13.9 kcal/mol; in assay [3], 8.37 kcal/mol. Besides, the Kd amounted to 0.92 nM in assay [2], 1.2 nM in assay [4], 13000 nM in assay [5] and 120 nM in assay [6].

B1: prothymosin α (unlabeled) (natural protein)
chain: MSDAAVDTSSEITTKDLKEKKEVVEEAENGRDAPANGNAENEENGEQEADNEVDEEEEEGGEEEEEEEEGDGEEEDGDEDEEAESATGKRAAEDDEDDDVDTKKQKTDEDD
For B1, the Kd in assay [7] turned out to be 3000 nM.

For the origin of these results see article PMC10576128.
